Results reported in article PMC10140031 (2023).

Molecular target: human complement C3a (human, UniProt P01024 672-748)
Experiment: SPR

Sequence of human complement C3a (P01024 672-748): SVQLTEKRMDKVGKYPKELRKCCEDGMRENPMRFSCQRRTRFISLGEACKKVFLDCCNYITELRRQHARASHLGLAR

B1: His-ISG65_(18-363)-Avi, C-terminally biotinylated (domain or fragment)
chain: LLVIGSEDNRVPGDKKLTKEGAAALCKMKHLADKVAKERSQELKDRTQNFAGYIEFELYRIDYWLEKLNGPKGRKDGYAKLSDSDIEKVKEIFNKAKDGITKQLPEAKKAGEEAGKLHTEVKKAAENARGQDLDDDTAKSTGLYRVLNWYCITKEERHNATPNCDGIQFRKHYLSVNRSAIDCSSTSYEENYDWSANALQVALNSWEDVKPKKLESAGSDKNCNIGQSSESHPCTMTEEWQTPYKETVEKLRELEDAYQRGKKAHDAMLGYANTAYAVNTKVEQEKPLTEVIAAAKEAGKKGAKIIIPAAAPATPTNSTKNDDSAPTEHVDRGIATNETQVEVGID
modifications: biotin on the C-terminal Avi-tag (site-specific Avi-tag biotinylation)
For B1, the Kd was 18 µM.
